This passage reports EC50 results from patent US20140328797A1.

The test has as its target HRV-A and B strains tested. Briefly: binding to HRV; format not stated in this example.

B1: TCN-711 (6893_E11) (antibody, human IgG1, lambda, V domains shown)
VH: QVQLHQWGTGVLKPSGTLSLTCGVYGGSLTDFYWTWIRQSPARGLEWLGEIDRDGATYYNPSLKSRITISIDTSKKQFSLNLRSVTAADRAVYYCARRPMLRGVWGNFRSNWFDPWGQGTQVTVSS
VL: QSVLTQPPSVSAAPGQKVSISCSGSSSNIGYSYVSWYQQVPGSAPKLLIYENNKRPSGIPDRFSASKSGTSATLDITGLQTGDEADYYCGTWDTRLFGGVFGGGTKLTVLG
For orientation: EC50 means the concentration at which the effect is half-maximal. The molecule B1 showed an EC50 of 0.007 to 0.07 nM.
